From US20230167164A1 (IMMUNOWAKE, published 2023)
Positions count from the first letter of the chain named. In names and notes the source's numbering stands.

Key:
[1] = target: T1, mouse PD-1 (mouse, UniProt Q02242 25-167, limits assumed); test: affinity in PD-L1-Fc format; N/A indicates non-detectable PD-1 binding
T1 construct: also called mPD-1
T1 sequence (looked up): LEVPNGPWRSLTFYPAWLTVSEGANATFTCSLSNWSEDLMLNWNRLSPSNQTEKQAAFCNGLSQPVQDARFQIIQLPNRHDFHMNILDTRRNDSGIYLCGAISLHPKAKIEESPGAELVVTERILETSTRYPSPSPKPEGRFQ

[2] = target: T2, human PD-1 (human, UniProt Q15116 25-167, limits assumed); test: as above
T2 construct: nivolumab is called an anti-human PD-1 antibody; also called hPD-1

[3] = target: T1, mouse PD-1; test: Kd column of Table 22; same value as PD-L2(WT)-Fc in Table 21
[4] = target: T1, mouse PD-1; test: Kd column of Table 22; same value as PD-L2(mut2)-Fc in Table 21
[5] = target: T1, mouse PD-1; test: method not named
[6] = target: T2, human PD-1; test: method not named

T2 sequence (Q15116 25-167 limits assumed): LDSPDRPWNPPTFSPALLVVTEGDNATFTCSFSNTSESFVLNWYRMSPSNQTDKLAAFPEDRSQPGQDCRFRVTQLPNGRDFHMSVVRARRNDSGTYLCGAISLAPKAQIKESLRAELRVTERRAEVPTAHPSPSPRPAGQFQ

B1: PD-L1(mut1)-Fc (Fc fusion)
chain 1: FTVTVPKDLYVVEYGSNMTIECKFPVEKQLDLAALIVYWMMEDKNIIQFVHGEEDLKVQHSSYRQRARLLKDQLSLGNAALQITDVKLQDAGVYTCLIAYKGADYKRITVKVNAPYNKINQRILVVDPVTSEHELTCQAEGYPKAEVIWTSSDHQVLSGKTTTTNSKREEKLFNVTSTLRINTTTNEIFYCTFRRLDPEENHTAELVIPELPLAHPPNERDKTHTCPPCPAPEDEGGPSVFLFPPKPKDTLMISRTPEVTCVVVDVSHEDPEVKFNWYVDGVEVHNAKTKPREEQYNSTYRVVSVLTVLHQDWLNGKEYKCKVSNKALPAPIEKTISKAKGQPREPQVYVYPPSREEMTKNQVSLTCLVKGFYPSDIAVEWESNGQPENNYKTTPPVLDEDGSFALVSKLTVDKSRWQQGNVFSCSVMHEALHNHYTQKSLSLSPGK
chain 2: B1 chain 1 with D234K, E235K, Y351L, T366L, N390R, K392M, T394W, E400S, A405F, V407Y
notes: also called E58M/R113T/M115L/S117A/G119K
Question: Does B1 bind [1]?
Answer: no binding

Question: Does B1 bind [2]?
Answer: no binding

B2: IL-12(E59A/F60A)/PD-L2(WT)-Fc (Fc fusion)
chain 1: LFTVTVPKELYIIEHGSNVTLECNFDTGSHVNLGAITASLQKVENDTSPHRERATLLEEQLPLGKASFHIPQVQVRDEGQYQCIIIYGVAWDYKYLTLKVKASYRKINTHILKVPETDEVELTCQATGYPLAEVSWPNVSVPANTSHSRTPEGLYQVTSVLRLKPPPGRNFSCVFWNTHVRELTLASIDLQSQMEPRTHPTGSGIWELKKDVYVVELDWYPDAPGEMVVLTCDTPEEDGITWTLDQSSEVLGSGKTLTIQVKAAGDAGQYTCHKGGEVLSHSLLLLHKKEDGIWSTDILKDQKEPKNKTFLRCEAKNYSGRFTCWWLTTISTDLTFSVKSSRGSSDPQGVTCGAATLSAERVRGDNKEYEYSVECQEDSACPAAEESLPIEVMVDAVHKLKYENYTSSFFIRDIIKPDPPKNLQLKPLKNSRQVEVSWEYPDTWSTPHSYFSLTFCVQVQGKSKREKKDRVFTDKTSATVICRKNASISVRAQDRYYSSSWSEWASVPCSGGGGSGGGGSGGGGSGGGGSGRNLPVATPDPGMFPCLHHSQNLLRAVSNMLQKARQTLEFYPCTSEEIDHEDITKDKTSTVEACLPLELTKNESCLNSRETSFITNGSCLASRKTSFMMALCLSSIYEDLKMYQVEFKTMNAKLLMDPKRQIFLDQNMLAVIDELMQALNFNSETVPQKSSLEEPDFYKTKIKLCILLHAFRIRAVTIDRVMSYLNASDKTHTCPPCPAPEDEGGPSVFLFPPKPKDTLMISRTPEVTCVVVDVSHEDPEVKFNWYVDGVEVHNAKTKPREEQYNSTYRVVSVLTVLHQDWLNGKEYKCKVSNKALPAPIEKTISKAKGQPREPQVYVYPPSREEMTKNQVSLTCLVKGFYPSDIAVEWESNGQPENNYKTTPPVLDEDGSFALVSKLTVDKSRWQQGNVFSCSVMHEALHNHYTQKSLSLSPGK
chain 2: LFTVTVPKELYIIEHGSNVTLECNFDTGSHVNLGAITASLQKVENDTSPHRERATLLEEQLPLGKASFHIPQVQVRDEGQYQCIIIYGVAWDYKYLTLKVKASYRKINTHILKVPETDEVELTCQATGYPLAEVSWPNVSVPANTSHSRTPEGLYQVTSVLRLKPPPGRNFSCVFWNTHVRELTLASIDLQSQMEPRTHPTGSGDKTHTCPPCPAPEKKGGPSVFLFPPKPKDTLMISRTPEVTCVVVDVSHEDPEVKFNWYVDGVEVHNAKTKPREEQYNSTYRVVSVLTVLHQDWLNGKEYKCKVSNKALPAPIEKTISKAKGQPREPQVYVLPPSREEMTKNQVSLLCLVKGFYPSDIAVEWESNGQPENRYMTWPPVLDSDGSFFLYSKLTVDKSRWQQGNVFSCSVMHEALHNHYTQKSLSLSPGK
notes: also called IL-12(E59A/F60A)/PD-L2-Fc immunocytokine; construct #29
Question: B2 was tested. Which Kd [3] did it give?
Answer: 980 nM

B3: IL-12(E59A/F60A)/PD-L2(mut2)-Fc (Fc fusion)
chain 1: LFTVTVPKELYIIEHGSNVTLECNFDTGSHVNLGAITAVLQKVENDTSPHRERATLLEEQLPLGKASFHIPQVQVRDEGQYQCIIIYGVAWDYKYLTLKVKASYRKINTHILKVPETDEVELTCQATGYPLAEVSWPNVSVPANTSHSRTPEGLYQVTSVLRLKPPPGRNFSCVFWNTHVRELTLASIDLQSQMEPRTHPTGGGGSGGGIWELKKDVYVVELDWYPDAPGEMVVLTCDTPEEDGITWTLDQSSEVLGSGKTLTIQVKAAGDAGQYTCHKGGEVLSHSLLLLHKKEDGIWSTDILKDQKEPKNKTFLRCEAKNYSGRFTCWWLTTISTDLTFSVKSSRGSSDPQGVTCGAATLSAERVRGDNKEYEYSVECQEDSACPAAEESLPIEVMVDAVHKLKYENYTSSFFIRDIIKPDPPKNLQLKPLKNSRQVEVSWEYPDTWSTPHSYFSLTFCVQVQGKSKREKKDRVFTDKTSATVICRKNASISVRAQDRYYSSSWSEWASVPCSGGGGSGGGSGGGGSRNLPVATPDPGMFPCLHHSQNLLRAVSNMLQKARQTLEFYPCTSEEIDHEDITKDKTSTVEACLPLELTKNESCLNSRETSFITNGSCLASRKTSFMMALCLSSIYEDLKMYQVEFKTMNAKLLMDPKRQIFLDQNMLAVIDELMQALNFNSETVPQKSSLEEPDFYKTKIKLCILLHAFRIRAVTIDRVMSYLNASGGGGSGGGDKTHTCPPCPAPEDEGGPSVFLFPPKPKDTLMISRTPEVTCVVVDVSHEDPEVKFNWYVDGVEVHNAKTKPREEQYNSTYRVVSVLTVLHQDWLNGKEYKCKVSNKALPAPIEKTISKAKGQPREPQVYVYPPSREEMTKNQVSLTCLVKGFYPSDIAVEWESNGQPENNYKTTPPVLDEDGSFALVSKLTVDKSRWQQGNVFSCSVMHEALHNHYTQKSLSLSPGK
chain 2: LFTVTVPKELYIIEHGSNVTLECNFDTGSHVNLGAITAVLQKVENDTSPHRERATLLEEQLPLGKASFHIPQVQVRDEGQYQCIIIYGVAWDYKYLTLKVKASYRKINTHILKVPETDEVELTCQATGYPLAEVSWPNVSVPANTSHSRTPEGLYQVTSVLRLKPPPGRNFSCVFWNTHVRELTLASIDLQSQMEPRTHPTGGGGSGGGDKTHTCPPCPAPEKKGGPSVFLFPPKPKDTLMISRTPEVTCVVVDVSHEDPEVKFNWYVDGVEVHNAKTKPREEQYNSTYRVVSVLTVLHQDWLNGKEYKCKVSNKALPAPIEKTISKAKGQPREPQVYVLPPSREEMTKNQVSLLCLVKGFYPSDIAVEWESNGQPENRYMTWPPVLDSDGSFFLYSKLTVDKSRWQQGNVFSCSVMHEALHNHYTQKSLSLSPGK
notes: also called IL-12(E59A/F60A)/PD-L2(S58V)-Fc
Question: How did the Kd [4] turn out when B3 was run?
Answer: 230 nM

Question: What about the Kd [5] of the same binder?
Answer: ~100 nM

Question: What about the Kd [6] of the same binder?
Answer: ~100 nM
